In this assay the target is ubiquitin (monoUb), P0CG48. Put plainly: NMR titration; NZF domain added to 15N-labeled monoUb or diUb; BEST-TROSY, chemical shift perturbation; NMR PBS (18 mM Na2HPO4, 7 mM NaH2PO4 pH 7.2, 150 mM NaCl), 298 K.

For orientation: Kd means a measure of binding affinity in units of concentration.

With NANKWSCHMCTYLNWPRAIRCTQCLSQRRT (domain or fragment, modifications not checked) [TRABID NZF2], the Kd worked out at 1000 µM. Regarding RTQHWTCSVCTYENWAKAKRCVVCDHPRPN (domain or fragment, modifications not checked) [TRABID NZF3], the Kd was 540 µM.

(Values after PMC4386031.)
